# Data published in patent US20170174769A1 (Regeneron, published 2017).
# Positions count from the first letter of the chain named. In names and notes the source's numbering stands.
# B1: H4H8878P (antibody, V domains shown)
# VH: QVQLVESGGGVVQPGRSLRLSCAASGFTLNTYGMHWIRQTPGKGLEWVSLISYDETKEYYVDSVKGRFTISRDNSKNTLYLQMNSVRVEDTAVYYCAKPLTGSTDYYYGLDVWGQGTTVTVSS
# VL: DIQMTQSPSYVSASVGDRVIITCRASQDISSWLAWYQQKPGKAPKLLIYVTSSLESGVPSRFSGSGSGTDFTLTISGLQPEDFATYYCQQVKSFPPTFGPGTKVDIK
# notes: human IgG4 Fc (H4H prefix)
# B2: H4H8880P (antibody, V domains shown)
# VH: EVQLVESGGGVVQPGGSLRLSCAASGFTFSLYAMSWVRQAPGKGLEWVSAISGSAHGAYYADSVKGRFTISRDNSKNSLYLQMNSLRAEDTAIYYCAKDLVIAVAGTFDYWGQGTLVTVSS
# VL: DIQMTQSPSSLSASVGDRVTITCRASQIISTYLNWYQQKPGKAPKILIYTASSLKSGVPSRFSGSGSGTDFTLTISSLQPEDFATYYCQQTYSSPRFTFGPGTKVDIK
# notes: human IgG4 Fc (H4H prefix)
# B3: H4H8881P (antibody, V domains shown)
# VH: QVQLVQSGAEVKKPGASVKVSCKASGYTFTSYVIHWVRQAPGQRLEWMGWSNAANGDTKYSQEFQDRVTFTRDTSASTAYMELSSLRSEDMAVYYCARWNWNYGAFDIWGQGTMVTVSS
# VL: DIQMTQSPSSLSASVGDRVTITCQASQDINNYLHWYQQKSGKAPNLLIYDASILETGVPSRFSGSGSGTDFTFTISSLQPEDIATYYCQQYDNLPYTFGQGTKLEIK
# notes: human IgG4 Fc (H4H prefix)
# B4: H4H8871P (antibody, V domains shown)
# VH: QVQLQESGPGLVKPSETLSLTCTVSGASISSYYWSWIRQPPGKGLEWIGYIYSSGIIKYNPSLKSRVTISADTSKNQFSLKLSSVTAADTAVYYCARHGIFGVMEYFQRWGQGTLVTVSS
# VL: DIQMTQSPSSLSASIGDRVTITCQASQDIGNFLNWYHQKPGKAPTLLIYDASNMETGVPSRFRGSGSGTYFTFIISSLQPEDVATYYCQQYDNLPLTFGGGTKVEIK
# notes: human IgG4 Fc (H4H prefix)
# B5: H1H8897P (antibody, V domains shown)
# VH: QVQLVESGGGLVKPGGSLRLSCAAAGFTFSDYYMSWIRQAPGQGLEWVSYISPSGSTTYYADSVQGRFTISRDNAKSSLYLQMNSLRAEDTAVYYCARTGIQLWSVYFDYWGQGTLVTVSS
# VL: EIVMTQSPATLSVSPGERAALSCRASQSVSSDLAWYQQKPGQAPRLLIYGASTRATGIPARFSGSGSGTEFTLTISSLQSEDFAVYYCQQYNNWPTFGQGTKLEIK
# notes: H1H Fc prefix (human Fc)
# B6: H1H8898P (antibody, V domains shown)
# VH: B5 VH with A25S, T28I, Q43K, E46D, V48I, T58I, Q65K, S77N, E89D
# VL: EIVMTQSPATLSVSPGERATLSCRASQSVGSNLAWYQQKPGQAPRLLIYGASTRANGIPARFSGSGSGTEFTLTISGLQSEDFAVYYCQQYNNWPTFGQGTKLEIK
# notes: H1H Fc prefix (human Fc)
# Biological target: T1, human KLB and human FGFR1c co-expressed on HEK293/hKLB/hFGFR1c/SRE-luc cells (human, UniProt Q86Z14 1-1044; P11362 22-822)
# Experiment: cell-based or functional assay
Binder,"EC50, SRE-luc activation without ligand [pM]",Maximum Activation (%) without ligand [%]
B1,410,1
B2,54,1
B3,72,7
B4,180,5
B5,19000,1
B6,8900,3

# Biological target: T1, human KLB and human FGFR1c co-expressed …
# Experiment: cell-based or functional assay
# Remark: another data set of the same source
Binder,"IC50, inhibition of 1 nM hFGF21 [pM]",Maximum Inhibition (%) of 1 nM hFGF21 [%]
B1,230,38
B2,150,39
B3,67,77
B4,380,92
B5,970,101
B6,2000,97

# Biological target: M. fascicularis KLB and human FGFR1c co-expressed on HEK293/MfKLB/hFGFR1c/SRE-Luc cells (M. fascicularis; human, UniProt A0A2K5WB58 1-1044)
# Experiment: cell-based or functional assay
Binder,"IC50, inhibition of 10 nM mfFGF21 [pM]",Maximum Inhibition (%) of 10 nM mfFGF21 [%],"EC50, SRE-luc activation without ligand [pM]",Maximum Activation (%) without ligand [%]
B1,120,38,–,–
B2,120,39,–,–
B3,46,77,20,3
B4,390,92,130,4
B5,5200,101,–,–
B6,12000,97,–,–

# Biological target: T2, extracellular domain of human KLB expressed with C-terminal HA and hexahistidine tags (human, UniProt Q86Z14 1-996)
# T2 construct: also called hKLB-HA-6His; hKLB-HA-6his
# T2 sequence: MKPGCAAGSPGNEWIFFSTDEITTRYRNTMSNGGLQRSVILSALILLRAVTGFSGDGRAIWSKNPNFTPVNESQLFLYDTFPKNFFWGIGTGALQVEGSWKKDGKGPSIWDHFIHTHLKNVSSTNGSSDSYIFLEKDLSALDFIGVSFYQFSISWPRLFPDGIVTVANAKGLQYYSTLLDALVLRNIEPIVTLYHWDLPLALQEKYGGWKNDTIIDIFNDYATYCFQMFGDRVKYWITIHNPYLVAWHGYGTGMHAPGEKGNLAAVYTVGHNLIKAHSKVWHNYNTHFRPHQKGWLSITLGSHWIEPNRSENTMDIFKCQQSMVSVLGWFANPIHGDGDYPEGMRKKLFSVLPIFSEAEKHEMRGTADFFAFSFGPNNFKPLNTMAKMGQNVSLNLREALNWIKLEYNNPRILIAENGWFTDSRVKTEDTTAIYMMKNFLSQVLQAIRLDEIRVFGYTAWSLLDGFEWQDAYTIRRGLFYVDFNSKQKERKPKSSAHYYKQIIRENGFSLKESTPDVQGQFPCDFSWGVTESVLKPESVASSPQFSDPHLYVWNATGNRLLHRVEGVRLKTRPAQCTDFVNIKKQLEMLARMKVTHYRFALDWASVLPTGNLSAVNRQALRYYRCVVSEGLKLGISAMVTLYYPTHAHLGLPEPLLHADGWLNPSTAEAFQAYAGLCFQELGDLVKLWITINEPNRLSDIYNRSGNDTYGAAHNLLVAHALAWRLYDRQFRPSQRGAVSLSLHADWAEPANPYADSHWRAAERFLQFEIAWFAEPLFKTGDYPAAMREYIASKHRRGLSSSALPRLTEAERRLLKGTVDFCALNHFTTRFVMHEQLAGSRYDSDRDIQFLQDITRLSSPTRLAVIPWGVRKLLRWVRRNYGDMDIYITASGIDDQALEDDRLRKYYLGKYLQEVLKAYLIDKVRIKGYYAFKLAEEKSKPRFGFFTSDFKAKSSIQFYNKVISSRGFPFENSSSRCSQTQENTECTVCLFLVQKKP
# Experiment: SPR, mAb captured, 25 C
# How it was run: (§1)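 First, an anti-mouse or anti-human Fc antibody is amine-coupled to the chip. Next, the mAb is captured, then soluble tagged receptor associates for 3.5 to 4 minutes and dissociates 8-12 minutes in HBST buffer. Finally, 1:1 fitting gives ka and kd.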
Binder,20 nM hKLB-HA-6His Bind (RU),Kd [pM],koff [s⁻¹],kon [M⁻¹ s⁻¹],t1/2 [min]
B1,28.4,1250,0.000213,170000,54.3
B2,68.1,640,0.000287,448000,40.3
B3,92.7,124,0.000178,1.44e+06,65
B4,-0.7,–,–,–,–
B5,-0.4,–,–,–,–
B6,-0.2,–,–,–,–

# Biological target: T3, extracellular domain of human FGFR1c expressed with C-terminal V5 and hexahistidine tags (human, UniProt P11362 22-376)
# T3 construct: also called hFGFR1c-V5-6His
# T3 sequence: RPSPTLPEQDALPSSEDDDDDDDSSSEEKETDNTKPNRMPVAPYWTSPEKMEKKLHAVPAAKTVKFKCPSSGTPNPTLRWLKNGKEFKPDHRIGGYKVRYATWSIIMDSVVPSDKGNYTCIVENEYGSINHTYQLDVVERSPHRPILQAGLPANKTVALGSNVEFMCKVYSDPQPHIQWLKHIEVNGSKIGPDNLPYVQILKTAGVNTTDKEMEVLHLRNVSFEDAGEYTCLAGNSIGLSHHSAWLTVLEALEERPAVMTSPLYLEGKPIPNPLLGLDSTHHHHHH
# Experiment: SPR, mAb captured, 25 C
# How it was run: as §1
Binder,180 nM hFGFR1c-V5-6His Bind (RU),binding result
B1,0.4,no binding (tested: 180 nM)
B2,0.4,no binding (tested: 180 nM)
B3,0.3,no binding (tested: 180 nM)
B4,0.4,–
B5,0.9,no binding (tested: 180 nM)
B6,2.9,no binding (tested: 180 nM)

# Biological target: T2, extracellular domain of human KLB …
# Experiment: SPR, mAb captured, 37 C
# How it was run: as §1
Binder,20 nM hKLB-HA-6His Bind (RU),Kd [pM],koff [s⁻¹],kon [M⁻¹ s⁻¹],t1/2 [min]
B1,101,305,0.000241,790000,48
B2,148,945,0.000526,556000,22
B3,101,320,0.000463,1.45e+06,24.9
B4,-0.9,–,–,–,–
B5,1.9,–,–,–,–
B6,-1.9,–,–,–,–

# Biological target: T3, extracellular domain of human FGFR1c …
# Experiment: SPR, mAb captured, 37 C
# How it was run: as §1
row,Binder,180 nM hFGFR1c-V5-6His Bind (RU)
1,B1,0.8
2,B2,0.1
3,B3,0
4,B4,-1.4
5,B5,0.7
6,B6,0.4
